Source: publication PMC5690661, “The PrpF protein of Shewanella oneidensis MR-1 catalyzes the isomerization of 2-methyl-cis-aconitate during the catabolism of propionate via the AcnD-dependent 2-methylcitric acid cycle” (PLoS ONE, 2017)

How the values were obtained:
[1] = target: T1, SePrpD (Salmonella enterica, UniProt P74840); experiment: HPLC of reaction products; format: biochemical; details: 5 mM substrate, Tris-HCl 90 mM pH 8.0, 37°C, 1.5 h
T1 construct: gene prpD; recombinant, His-tagged, purified from E. coli
T1 sequence (P74840 1-483): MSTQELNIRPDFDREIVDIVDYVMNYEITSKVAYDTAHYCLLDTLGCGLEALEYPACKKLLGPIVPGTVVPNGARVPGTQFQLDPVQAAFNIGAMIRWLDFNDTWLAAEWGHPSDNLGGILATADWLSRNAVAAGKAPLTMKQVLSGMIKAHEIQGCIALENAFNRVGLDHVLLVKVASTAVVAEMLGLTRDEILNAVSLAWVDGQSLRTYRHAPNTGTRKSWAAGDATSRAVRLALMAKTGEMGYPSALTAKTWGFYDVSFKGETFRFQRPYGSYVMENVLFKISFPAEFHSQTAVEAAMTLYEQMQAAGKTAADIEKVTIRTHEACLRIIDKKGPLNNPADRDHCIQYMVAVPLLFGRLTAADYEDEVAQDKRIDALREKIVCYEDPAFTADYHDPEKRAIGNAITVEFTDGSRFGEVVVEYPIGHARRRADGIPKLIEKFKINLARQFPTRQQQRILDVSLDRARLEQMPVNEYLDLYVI

[2] = tested on: C/C(C(=O)O)=C(\CC(=O)O)C(=O)O; experiment: purified protein; details: Tris-HCl 50 mM pH 8.0, KCl 100 mM, 37°C, Fe/S-reactivated enzyme
[3] = target: T2, SoPrpF (Shewanella oneidensis, UniProt Q8EJW4); experiment: HPLC time course; coupled aconitase assay; format: biochemical; details: substrate is the SoAcnD product of 2-methylcitrate; Tris-HCl 50 mM pH 8.0, KCl 100 mM
T2 construct: gene prpF; recombinant from pPRP196 (pTEV4, N-terminal TEV-cleavable H6 tag), purified as in earlier work; homodimer
T2 sequence (Q8EJW4 whole entry): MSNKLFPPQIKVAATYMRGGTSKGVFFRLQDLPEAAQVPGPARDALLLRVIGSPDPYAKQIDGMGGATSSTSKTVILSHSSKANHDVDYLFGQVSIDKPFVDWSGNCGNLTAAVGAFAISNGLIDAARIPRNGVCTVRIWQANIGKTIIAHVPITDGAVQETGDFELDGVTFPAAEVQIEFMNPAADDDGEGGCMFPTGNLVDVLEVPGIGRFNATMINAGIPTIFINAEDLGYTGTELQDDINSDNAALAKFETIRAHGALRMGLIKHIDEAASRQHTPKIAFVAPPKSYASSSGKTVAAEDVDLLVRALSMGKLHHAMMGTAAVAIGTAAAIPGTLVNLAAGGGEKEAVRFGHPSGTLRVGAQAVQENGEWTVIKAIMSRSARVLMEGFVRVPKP

[4] = substrate: O=C(O)/C=C(/CC(=O)O)C(=O)O; experiment: purified protein; details: Tris-HCl 50 mM pH 8.0, KCl 100 mM, 37°C, Fe/S-reactivated enzyme
[5] = target: the molecule itself; experiment: crystal structure; hanging drop vapor diffusion, MES 100 mM pH 6.0, sodium malonate 136 mM, PEG 4K 15% w/v, room temperature; space group P2(1), two chains in the asymmetric unit related by a non-crystallographic twofold axis; 1.22 Å

Which “HPLC of reaction products” value [1] does the source give for `CC(C(=O)O)C(O)(CC(=O)O)C(=O)O` (stereo not shown) [2-methylcitrate] here?
The value was “SePrpD synthesized 2-methyl-cis-aconitate from 2-methylcitrate”.

What does the source list for “SeAcnA (Salmonella enterica subsp. enterica serovar Typhimurium str. LT2)”?
Km [2]: 210 ± 35 µM; Vmax [2]: 50 µM/min; kcat [2]: 11.8 ± 0.7 s⁻¹; kcat/Km [2]: 56700 M⁻¹ s⁻¹

How did the “HPLC time course; coupled aconitase assay” value [3] turn out when `C/C(C(=O)O)=C(\CC(=O)O)C(=O)O` [2-methyl-cis-aconitate] was run?
Its value is “SoPrpF converted the SoAcnD reaction product into 2-methyl-cis-aconitate over time”.

With “SeAcnB (Salmonella enterica subsp. enterica serovar Typhimurium str. LT2)” as the molecule, how does the Km [2] read?
Its Km is 208 ± 39 µM.

And the Vmax [2]?
Its Vmax is 10 µM/min.

What about the kcat [2] of the same molecule?
The kcat was 6.6 ± 0.667 s⁻¹.

And the kcat/Km [2]?
Its kcat/Km is 31700 M⁻¹ s⁻¹.

B1: SeAcnA (Salmonella enterica subsp. enterica serovar Typhimurium str. LT2) (protein)
chain: MSSTLREASKDTLQAKDKTYHYYSLPLAAKSLGDIARLPKSLKVLLENLLRWQDGESVTDEDIQALAGWLKNAHADREIAWRPARVLMQDFTGVPAVVDLAAMREAVKRLGGDTSKVNPLSPVDLVIDHSVTVDHFGDDDAFEENVRLEMERNHERYMFLKWGKQAFSRFSVVPPGTGICHQVNLEYLGKAVWSELQDGEWIAYPDSLVGTDSHTTMINGLGVLGWGVGGIEAEAAMLGQPVSMLIPDVVGFKLTGKLREGITATDLVLTVTQMLRKHGVVGKFVEFYGDGLDSLPLADRATIANMSPEYGATCGFFPIDAITLEYMRLSGRSDDLVELVETYAKAQGMWRNPGDEPVFTSTLELDMGDVEASLAGPKRPQDRVALGDVPKAFAASAELELNTAQRDRQPVDYTMNGQPYQLPDGAVVIAAITSCTNTSNPSVLMAAGLLAKKAVTLGLKRQPWVKASLAPGSKVVSDYLAQAKLTPYLDELGFNLVGYGCTTCIGNSGPLPEPIETAIKKGDLTVGAVLSGNRNFEGRIHPLVKTNWLASPPLVVAYALAGNMNINLATDPLGYDRKGDPVYLKDIWPSAQEIARAVELVSSDMFRKEYAEVFEGTEEWKSIQVESSDTYGWQSDSTYIRLSPFFDEMQAQPAPVKDIHGARILAMLGDSVTTDHISPAGSIKPDSPAGRYLQNHGVERKDFNSYGSRRGNHEVMMRGTFANIRIRNEMLPGVEGGMTRHLPGTEAMSIYDAAMLYQQEKTPLAVIAGKEYGSGSSRDWAAKGPRLLGIRVVIAESFERIHRSNLIGMGILPLEFPQGVTRKTLGLTGEEVIDIADLQNLRPGATIPVTLTRSDGSKETVPCRCRIDTATELTYYQNDGILHYVIRNMLN
What does the source list for B1?
Km [4]: 22 ± 2 µM; Vmax [4]: 86 µM/min; kcat [4]: 62.3 ± 1.45 s⁻¹; kcat/Km [4]: 2.83e+06 M⁻¹ s⁻¹

B2: Shewanella oneidensis MR-1 PrpF K73E variant (SoPrpF^K73E) (enzyme)
chain: MSNKLFPPQIKVAATYMRGGTSKGVFFRLQDLPEAAQVPGPARDALLLRVIGSPDPYAKQIDGMGGATSSTSETVILSHSSKANHDVDYLFGQVSIDKPFVDWSGNCGNLTAAVGAFAISNGLIDAARIPRNGVCTVRIWQANIGKTIIAHVPITDGAVQETGDFELDGVTFPAAEVQIEFMNPAADDDGEGGCMFPTGNLVDVLEVPGIGRFNATMINAGIPTIFINAEDLGYTGTELQDDINSDNAALAKFETIRAHGALRMGLIKHIDEAASRQHTPKIAFVAPPKSYASSSGKTVAAEDVDLLVRALSMGKLHHAMMGTAAVAIGTAAAIPGTLVNLAAGGGEKEAVRFGHPSGTLRVGAQAVQENGEWTVIKAIMSRSARVLMEGFVRVPKP
notes: PrpF (2-methylaconitate isomerase) of Shewanella oneidensis MR-1, with the substitution K73E; prpF+ cloned into pTEV4 (template pPRP196); also called Apo-SoPrpF^K73E; prpF258; source: E. coli, plasmid pPRP221 (pTEV4), IPTG-induced, purified (Maxwell 16 system)
Does B2 bind [5]?
Result: binds

B3: SeAcnB (Salmonella enterica subsp. enterica serovar Typhimurium str. LT2) (protein)
chain: MLEEYRKHVAERAAQGIVPKPLDATQMAALVELLKTPPVGEEEFLLDLLINRVPPGVDEAAYVKAGFLAAVAKGDTTSPLVSPEKAIELLGTMQGGYNIHPLIDALDDAKLAPIAAKALSHTLLMFDNFYDVEEKAKAGNEYAKQVMQSWADAEWFLSRPPLAEKITVTVFKVTGETNTDDLSPAPDAWSRPDIPLHAQAMLKNAREGIEPDQPGVVGPIKQIEALQKKGYPLAYVGDVVGTGSSRKSATNSVLWFMGDDIPNVPNKRGGGLCLGGKIAPIFFNTMEDAGALPIEVDVSNLNMGDVIDVYPYKGEVRNHETGELLATFELKTDVLIDEVRAGGRIPLIIGRGLTTKAREALGLPHSDVFRQAKDVAESSRGFSLAQKMVGRACGVKGIRPGAYCEPKMTSVGSQDTTGPMTRDELKDLACLGFSADLVMQSFCHTAAYPKPVDVTTHHTLPDFIMNRGGVSLRPGDGVIHSWLNRMLLPDTVGTGGDSHTRFPIGISFPAGSGLVAFAAATGVMPLDMPESVLVRFKGKMQPGITLRDLVHAIPLYAIKQGLLTVEKKGKKNIFSGRILEIEGLPDLKVEQAFELTDASAERSAAGCTIKLNKEPIVEYLTSNIVLLKWMIAEGYGDRRTLERRIQGMEKWLADPQLLEADADAEYAAVIDIDLADIKEPILCAPNDPDDARLLSDVQGEKIDEVFIGSCMTNIGHFRAAGKLLDNHKGQLPTRLWVAPPTRMDAAQLTEEGYYSVFGKSGARIEIPGCSLCMGNQARVADGATVVSTSTRNFPNRLGTGANVFLASAELAAVAALIGKLPTPEEYQTYVAQVDKTAVDTYRYLNFDQLSQYTEKADGVIFQTAV
Which Km [4] does the source give for B3 here?
The Km was 17 ± 3 µM.

And the Vmax [4]?
The Vmax was 21 µM/min.

What about the kcat [4] of the same molecule?
Its kcat is 34.9 ± 1.67 s⁻¹.

And the kcat/Km [4]?
The kcat/Km was 2.05e+06 M⁻¹ s⁻¹.
